Here are results for one substance from paper PMC11117822.

For this assay, the target named is poly-L-arginine hydrochloride. As to the kind of experiment: optical reflectometry; PARG layer adsorbed on silica in a stagnation point flow cell; HSA 5 mg L^-1 flowed over it at Q = 8.33 x 10^-3 cm^3 s^-1; 150 mM NaCl, pH 4.0; 298 K.

For the substance “human serum albumin (from UniProt P02768 25-609)”, the plateau coverage came out at 0.1 mg m^−2.
